Assay: soluble on expression in E. coli; label from the status in PepcDB or PDB records

Sequence | soluble on expression in E. coli
MYNFFRTVPRANRNEITFYPDYEEEGQKKKKTRSMFSWLGGDSSKKKNKEVLETVSEGLRKIYKQKLLPLEEFHKFHDFHSPALDDPDFDAKPMILLVGQYSTGKTTFIRYLLESDFPGIRIGPEPTTDRFIAVMHGDEEGSIPGNALVVDAKKQFRALSGFGNAFLNRFQCSTLPNQVLESVTIVDTPGILSGEKQRIDRGYDFTGVLEWFAERVDRIILLFDAHKLDISDEFKRCIEALAGNEDKIRIVLNKSDMVDHQQLMRVYGALMWSLGKVFKTPEVSRVYLGSFWDHPLHYDLNRRLFQDEQHDLFQDLQALPRNAALRKLNDLIKRARLAKVHAYIIAELRKQMPSMIGKDKKKKDLIQNLDKIYEQLQREHNISPGDFPDVNKMREKLQTQDFSKFNPLKPKLLEVVDGMLATDIARLMAQIPKEEAAAPAGSNGSADPTVRGGAFSQTTEAETPFGFGRGEGFDKGADEAEWVVSRERTTADSTFESLGPVNGYLSGRAAKEHMVKSKLPNSVLGKVWKLADIDKDGQLDADEFALANYLINLKLEGHEIPSELPKHLIPPSKRGEQDPVYPSLNDNDE | soluble
MYNLHREKIFMSYNQNKQYLEDNPEIQEKIELYGLNLLNEVISDNEEEIRADYNEANFLHPFWMNYPPLDRGKMPKGDQIPWIEVGEKAVGSKLTRLVSQREDITVREIGLPTGPDERYLLTSPTIYSLTNGFTDSIMMFVDIKSVGPRDSDYDLVLSPNQVSGNGDWAQLEGGIQNNQQTIQGPRSSQIFLPTIPPLYILSDGTIAPVVHLFIKPIYAMRSLTKGDTGQSLYKIKLASVPNGLGLFCNPGYAFDSAYKFLFRPGKDDRTKSLLQKRVRVDLRVLDKIGPRVMTIDMDK | soluble
MYPKQFLKFGETSLFQETVLRCLEVSDISEVFVVTNEAQKFFVIGQIKEAGYSIPPENILIEPEGKNTLPAIFFGMKEIEKKFGDSIVGVFSSDHVLDRAAMATISSAENLASDYLVTFGVVPTFPHTGYGYIKASEACSPGYRVSEFREKPDFETAKKYIEEGCLWNSGMFLFETRLFFEEARKHAPSVYGCFEKEGDINQIYECVDNISIDYGIMEKSDKVAVVRLDHKWSDLGNFAAIYDELEKDSVGNVIHDCDPMLLNSDGNLVYSRCGKIVSLIDVKDMVVVDTSDALLICPKSSSQKVKEIVSELKGRKDERAFIGQTVYRPWGSYTLLDASPGHKIKNITVLSDHKLSLQLHYHRSEHWVVVKGMACVEVDGKQFFLGPGESTFIRAGQKHRLSNPGKLPLEIIEVQLGELVDEEDIVRFDDVYGRRLEHHHHHH | soluble
MYQTKITGNRLYHTVSKGYGDSVTLFGKTDQGETPMSLLVIALSSCVTMCVQGFYHRQFQQDTLAVSVEASYEEEVFELLVRIDDVLDDKKKADLLAYIGTYCRVKQLLKPEVTVTITLEGLSHV | not soluble
MYREFYGLTEKPFSKTPDPRYLFLSRGHREALARLQYAVEERELALLTGDIGCGKTTISRALMDAVGNDGCFCFIVNPRLSAVEFLRTVARSLGIAEPAAAKDELLRQLTEAVYRLEGEKRCPVIIIDEAQLIPDQEVFDEIRLLTNFQLDDRNLMSVILMGQPELRQILSEPAHEALRQRIAMHYHLQPLSLEETLEYVDFRVEVAGGPQGLFSPDAIRRIYELSGGVPRKINILATNALLVGFGKDSAWIDASLVEELRDEASLYLEHHHHHH | not soluble
MYYGIKALTVGRGESVRAKITTTIEEALLNKAKALAKQEGLSGANAIIERALELYFTSIQSEVWEKSLSSGWIKKLVLKRDSILYENIKCRKTMENCRPDDYTPESLKAKGWKKV | not soluble
MYYPFVRKALFQLDPERAHEFTFQQLRRITGTPFEALVRQKVPAKPVNCMGLTFKNPLGLAAGLDKDGECIDALGAMGFGSIEIGTVTPRPQPGNDKPRLFRLVDAEGLINRMGFNNLGVDNLVENVKKAHYDGVLGINIGKNKDTPVEQGKDDYLICMEKIYAYAGYIAINISSPNTPGLRTLQYGEALDDLLTAIKNKQNDLQAMHHKYVPIAVKIAPDLSEEELIQVADSLVRHNIDGVIATNTTLDRSLVQGMKNCDQTGGLSGRPLQLKSTEIIRRLSLELNGRLPIIGVGGIDSVIAAREKIAAGASLVQIYSGFIFKGPPLIKEIVTHI | soluble
MYYVGIMSGTSLDGIDAVLVDFSGPSFSLLHTCYIPYDQSLRAALLGLNQAGENELHRAAILSNQLSGWYAQAVGRLLEKSGIDPGEIIAVGCHGQTIRHCPQPENGYSIQLVNGALLAELTGMTVVTDFRSRDIAAGGQGAPLVPAFHHEMFAHRDIHRLIINIGGITNITSLPVSGGVNGFDCGPGNMLMDAWCLKHTGMTYDHNGSWAESGRVINPLLENLLNFPYFSLPPPKSTGREMFSLDWLQPCLRGDEATQDVQSTLLQLTVRTITDSVETYYPAVRELYLCGGGAHNGTLVTRLQQQLPGRRINLTDALGIEADWVEACAFAWLARQSIERAPGNLPAVTGATGSRTLGAIYPA | not soluble
NATERSPVIIGLAGFTGSGRSFLNRTYTSMDFLTALKEIDEKRSDLGFIIVLPDVMTGLYGNQYLNSSAVGNYEDFIVKDIVGIIRERFGERPMGVFGKSSGGFGSYTLAVRHPDIFSGFIDVSGDSAFEYVYIPDFPDTYKEIRRQGLYRWFDEIHRKLSLQNQDIKVANIVAMSAFYSPDPGSPMGISLPFDIETGELIESVWNRWLKFDPARNIADYMDVLRDMAIFLQVGAKDEFHTDIGIGTMHRKLEQENVVHFYEVYDSGHFGIDYFYLKSLPLLIELIEQ | not soluble
NATQINEELYRLLEDTEILNQEITEGLLKGFEVPDAGVAIQLSKRDVVYPARILIIVLSEMWRFGLTKQSESFLAQVLTTIQKVVTQLKGNDLIPSGVFWLANVRELYSFVVFALNSILTEETFKNGMTDEEYKEYVSLVTELKDDFEALSYNIYNIWLKKLQKQLQKKAINAVVISESLPGFSAGETSGFLNKIFANTEEYTMDDILTFFNSIYWCMKSFHIENEVFHAVVTTLLNYVDAICFNELIMKRNFLSWKRGLQLNYNVTRLEEWCKTHGLTDGTECLQHLIQTAKLLQVRKYTIEDIDILRGICYSLTPAQLQKLISQYQVADYESPIPQEILRYVADIVKKEAALSSSGNDSKGHEHSSSIFITPETGPFTDPFSLIKTRKFDQVEAYIPAWLSLPSTKRIVDLVAQQVV | soluble
NDVKRALEVEEINKLLNEVPLKRLPEDLVRCRVWANLMFQLRGMPFVDLAFLHKSDLKGNTLSYRRHKTGGQMIVDIPPTAMELIRQYQNTDCNSPYLFPILSGTKTGEELYIEYQQALRIMNYNLGRLARRCGVITKVSSYTTRHTWATLAKYCNFSEQLICEAFGHSSVKVTETYLKNFKYEEIKKANDAI | not soluble
NEDCNTIFGADFSHEGETPGLGAEITRSEFSGQFIGKEIFKEGEFRSVAVVKKGQKAEGKDYVDGISGGTLTSDGVNEMLISSLRPYALYLMNNVKK | not soluble
NFDTNMFKLENYVKEKYSLESLEIIPNEFDDTPTILSERISQVAAGVLRNLIDDNMKIGFSWGKSLSNLVDLIHSKSVRNVHFYPLAGGPSHIHAKYHVNTLIYEMSRKFHGECTFMNATIVQENKLLADGILQSRYFENLKNSWKDLDIAVVGIGDFSNKGKHQWLDMLTEDDFKELTKVKTVGEICCRFFDSKGKEVYENLQERTIAISLEDLKNIPQSLAVAYGDTKVSSILSVLRANLVNHLITDKNTILKVLEEDGDL | soluble
NGAFFCNECDCRFSEEASLKRHTLQTHSDK | soluble
NIILQEDNAQLDEVVVVGYGTMKKKDLTGSVTAVKGDELAARRTTQLSTALQGALSGVMVSRDNGAPGSSASIQIRGVTTIGDSSPLVIIDGIPGDINSVNPEDVESMSVLKDAASASIYGSRAAAGVIVITTKRAKSGD | not soluble
NKDMNFTIRANYTFSQNVIDYFEENKLPYDYLSVTGKPFNILRGYISEGLFASKEEINTSPDQSGFGTIRPGDIKYRDVNGDGIINEDDKVPLSYSNQLPRMMYGFGGDFQWKDLTVSILFKGSAKVDYYRAGLGNDYGWIPFYNGDLGNVIKLANNPKNRWTPAWYSGTTATENPNAEFPRLSYGKNTNNSQLSSFWRRNGSFLRLQEVSLRYSLKHLPWIKSVGLSSVDLEFVANNLFTIDKVKYFDPEQASANGAVYPIPATYAFQVYLRF | not soluble
NKFNTWNDSRGNYWSDYEGSDENGDGIGDSAYAVNPEAGSMDYMPLMEYLHSSPVLPTARFTSDITEGFAPLSVRFKDFSENATSRLWMFGDGNTSDSPSPLHTFFNEGEYIVSLIVSNENDSDSASVTIRA | soluble

Source: the DeepSol protein solubility set
